The text below walks through data of PMC12428694, “A New β-Galactosidase from Pseudomonas tritici SWRI145 for Efficient Bioproduction of Galactooligosaccharides” (Foods, 2025).

For this series, the system named is O=[N+]([O-])c1ccccc1O[C@@H]1O[C@H](CO)[C@H](O)[C@H](O)[C@H]1O. The series can be described thus: purified protein. The conditions noted are these: 50 mM HEPES pH 7.5, 50 °C, 5 min, 0.3-60 mM ONPG, 1 mM Mg2+ probably present. In kind it is biochemical, Pseudomonas tritici.

For “Pstr β-galactosidase (Pseudomonas tritici)”, the Km was found to be 3000 µM and the kcat stood at 643.98 s⁻¹.

In general, Km refers to the substrate concentration at which the rate is half of its maximum. As a reminder, the kcat is the maximal rate divided by the concentration of active sites.
